Patent US20230295310A1 (ABCELLERA BIOLOGICS, published 2023)

Assays:
[1] = molecular target: T1, cynomolgus monkey CD3 expressed on primary T cells (cynomolgus monkey, UniProt Q95LI5 22-198; Q95LI8 22-171; Q95LI7 23-181); experiment: flow cytometry, 25 nM, cyno primary T cells
T1 construct: whole, on cells; CD3 complex on purified cynomolgus monkey T cells; also called cyno CD3
Procedure: Purified antibodies were confirmed to bind CD3 expressed on cells using the CytoFLEX S or LX flow cytometers (Beckman Coulter). Antibodies were diluted to 25 nM in FACS buffer (PBS+2% FBS) and were incubated with CD3-expressing cells for 30 minutes at 4° C. […] The median fluorescence intensity of the binding signal for each antibody was normalized to the isotype control to obtain a fold over isotype value. An antibody with a fold over isotype (FOI) of ≥10 was considered to be positive for binding.

[2] = molecular target: T2, human CD3 expressed on cells (human, UniProt P07766 23-207; P04234 22-171; P09693 23-182); experiment: flow cytometry, 25 nM
T2 construct: whole, on cells; CD3 complex on Jurkat cells and on human primary T cells
Outline: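 25 nM Ab in FACS buffer (PBS+2% FBS), 30 min at 4° C on CD3+ cells; flow cytometry MFI normalized to isotype = FOI; cutoff ≥10 for positive.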

T1 sequence (Q95LI5 22-198, chain 1 of 3): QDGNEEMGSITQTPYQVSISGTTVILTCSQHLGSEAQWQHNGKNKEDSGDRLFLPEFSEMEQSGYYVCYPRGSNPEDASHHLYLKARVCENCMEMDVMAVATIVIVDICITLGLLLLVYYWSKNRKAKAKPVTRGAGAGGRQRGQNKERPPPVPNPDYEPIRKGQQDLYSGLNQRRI
T1 sequence (Q95LI8 22-171, chain 2 of 3): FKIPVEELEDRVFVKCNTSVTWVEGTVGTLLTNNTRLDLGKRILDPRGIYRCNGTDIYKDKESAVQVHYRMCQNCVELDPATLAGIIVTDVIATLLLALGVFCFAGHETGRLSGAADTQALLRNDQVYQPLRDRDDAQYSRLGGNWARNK
T1 sequence (Q95LI7 23-181, chain 3 of 3): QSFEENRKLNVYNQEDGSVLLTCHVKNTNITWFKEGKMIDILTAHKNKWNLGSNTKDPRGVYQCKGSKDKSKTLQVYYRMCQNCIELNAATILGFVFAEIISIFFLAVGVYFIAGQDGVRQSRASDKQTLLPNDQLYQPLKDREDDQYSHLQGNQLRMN
T2 sequence (P07766 23-207, chain 1 of 3): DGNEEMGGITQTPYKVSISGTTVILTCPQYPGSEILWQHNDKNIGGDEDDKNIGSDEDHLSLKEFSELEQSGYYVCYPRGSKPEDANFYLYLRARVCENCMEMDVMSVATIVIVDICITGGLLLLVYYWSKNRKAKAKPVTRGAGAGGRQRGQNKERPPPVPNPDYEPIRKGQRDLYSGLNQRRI
T2 sequence (P04234 22-171, chain 2 of 3): as the sequence (Q95LI8 22-171, chain 2 of 3) above, with V5I, K15N, V20I, T32S, N33D, N34I, A64T, N74S, L83V, R141H counted along it
T2 sequence (P09693 23-182, chain 3 of 3): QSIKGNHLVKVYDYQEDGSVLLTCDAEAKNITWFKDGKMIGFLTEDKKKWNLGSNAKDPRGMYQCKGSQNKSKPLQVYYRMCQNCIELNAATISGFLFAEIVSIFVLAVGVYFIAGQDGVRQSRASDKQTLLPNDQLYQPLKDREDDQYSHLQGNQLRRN

B1: mAb 112 (antibody, V domains shown)
VH: EVQLVESGGGLVKTGGSHRLSCVASGFSFKKAWMNWVRQAPGKGLEWVGRIKRNSDGGTTDYAAPVKGRFILSRDDSKNTLYLQMNSLKTEDTAVYYCTTLDSSSWYVGYYYMDVWGKGTTVTVSS
VL: DIQMTQSPSSVSASVGDRVTITCRASQDINNWLAWYQQKPGKAPKILIYTASNLQSGVPSRFSGSGSGTDFTLTISSLQPEDFATYFCQQAHSLPITFGQGTRLEIK
binding result [1]: no binding (tested: FOI >=10 = positive) | Human primary T Cell Binding (FOI) [2]: 174 FOI | Jurkat Cell Binding (FOI) [2]: 158 FOI

B2: mAb 116 (antibody, V domains shown)
VH: EVQLVESGGGLVKTGGSLRLSCVASGFSFKKAWMNWVRQAPGKGLEWVGRIKRNSDGGTTDYAAPVKGRFTLSRDDSKNTLYLQMNSLKTEDTAVYYCTTLDSSSWYVGYYYMDVWGKGTTVTVSS
VL: DIQMTQSPFSVSASVGDRVTITCRASQDINNWLAWYQQKPGKAPKILIYTASSLQSGVPSRFSGSGSGTDFTLTISSLQPEDFATYYCQQAHSLPITFGQGTRLEIK
binding result [1]: no binding (tested: FOI >=10 = positive) | Human primary T Cell Binding (FOI) [2]: 174 FOI | Jurkat Cell Binding (FOI) [2]: 159 FOI

B3: mAb 120 (antibody, V domains shown)
VH: EVQLVESGGGLVKTGGSLRLSCVASGFSFKKAWMNWVRQAPGKGLEWVGRIKRNTDGGTADYAAPVKGRFTLSRDDSKKTLFLQMNSLKTEDTAVYYCTTLDSSSYYVGYYYMDVWGKGTTVTVSS
VL: DIQMTQSPSSVSASVGDRVTITCRASQDINNWLAWYQQKPGKAPKLLIYTASSLQSGVPSRFSGSGSGTDFTLTIGSLQPEDFATYYCQQAHSLPITFGQGTRLEIK
binding result [1]: no binding (tested: FOI >=10 = positive) | Human primary T Cell Binding (FOI) [2]: 167 FOI | Jurkat Cell Binding (FOI) [2]: 168 FOI

B4: mAb 133 (antibody, V domains shown)
VH: EVQLVESGGGLVKTGGSLRLSCVASGFSFKKAWMSWVRQAPGKGLEWVGRIKRNTDGGTADYAAPVKGRFTLSRDDSKKTLFLQMNSLKTEDSAVYYCVTLDSSSYYVGYYYMDVWGKGTTVTVSS
VL: DIQMTQSPSSVSASVGDRVSITCRASQDINNWLAWYQQKPGKAPKLLIYTASSLQSGVPSRFSGSGSGTDFTLTIGSLQPEDFATYYCQQAHSLPITFGQGTRLEIK
binding result [1]: no binding (tested: FOI >=10 = positive) | Human primary T Cell Binding (FOI) [2]: 169 FOI | Jurkat Cell Binding (FOI) [2]: 161 FOI

B5: mAb 114 (antibody, V domains shown)
VH: EVQLVESGGGLVKTGGSLRLSCVASGFSFKKAWMNWVRQAPGKGLEWVGRIKRNTDGGPADYAAPVKGRFTLSRDDSKKTLYLQMNSLKTEDTAVYYCTTLDSSSWYVGYYYMDVWGKGTTVTVSS
VL: DIQMTQSPSSVSASVGDRVIITCRASQDINNWLAWYLQRPGKAPKLLIYAASSLQSGVPSRFSGSGSGTDFTLTIGSLQPEDFATYYCQQAHSLPITFGQGTRLEIQ
binding result [1]: no binding (tested: FOI >=10 = positive) | Human primary T Cell Binding (FOI) [2]: 179 FOI | Jurkat Cell Binding (FOI) [2]: 167 FOI

B6: mAb 113 (antibody, V domains shown)
VH: EVQLVESGGGLVKTGGSLRLSCVASGFSFKKAWMNWVRQAPGKGLEWVGRIKRNTDGGTTDYAAPVKGRFTLSRDDSKNTLYLQMNSLKTEDTAVYYCTTLDSSSWYVGYYYMDVWGKGTTVTVSS
VL: DIQMTQSPSSVSASVGDRVTITCRASQDINNWLAWYQQKPGKAPKILIYTASSLQSGVPSRFSGSGSGTDFTLTISSLQPEDFATYYCQQAHSLPITFGQGTRLEIK
binding result [1]: no binding (tested: FOI >=10 = positive) | Human primary T Cell Binding (FOI) [2]: 173 FOI | Jurkat Cell Binding (FOI) [2]: 157 FOI

B7: mAb 155 (antibody, V domains shown)
VH: EVQLVESGGGLVKTGGSLRLSCVASGFSFKKAWMNWVRQAPGKGLEWVGRIKRNTDGGTADYAAPVKGRFTLSRDDSKKTLFLQMNSLKTEDTAVYYCTTLDSSSYYVGYYYMDVWGKGTTVTVSS
VL: DIQMTQSPSSVSASVGDRVIITCRASQDINNWLAWYQQKPGKAPKLLIYTASSLQSGVPSRFSGSGSGTDFTLTIGSLQPEDFATYYCQQAHSLPISFGQGTRLDIK
binding result [1]: no binding (tested: FOI >=10 = positive) | Human primary T Cell Binding (FOI) [2]: 274 FOI | Jurkat Cell Binding (FOI) [2]: 163 FOI

B8: mAb 123 (antibody, V domains shown)
VH: DVQLVESGGGTVKTGGSLRLSCVASGFSFKKAWMNWVRQAPGKGLEWVGRIKKNSDDGTADYAAPVKGRFTISRDDSKRTLFLQMNSLQTEDTAVYYCTTLDSSSWFVGYYYMDVWGKGTTVTVSS
VL: DIQMTQSPSSVSASVGDRVIITCRASQDINNWLAWYQQKPGKAPKLLIYTASSLQSGVPSRFSGSGSVSDFTLTIDSLQPEDFATYYCQQAHSLPITFGQGTRLEIK
binding result [1]: no binding (tested: FOI >=10 = positive) | Human primary T Cell Binding (FOI) [2]: 171 FOI | Jurkat Cell Binding (FOI) [2]: 159 FOI

B9: mAb 131 (antibody, V domains shown)
VH: EVQLVESGGGLVKTGGSLRISCVASGFSFKKAWMNWVRQAPGKGLEWVGRIKRNTDGGTIDYAAPVKGRFSLSRDDSKNTLFLQMNSLKTEDTAVYFCTTLDSSSYYVGYYYMDVWGKGTTVTVSS
VL: DIHMTQSPSSVSASVGDRVTITCRASQDINNWLAWYQQKPGKAPKLLIYTASSLQSGVPSRFSGSGSGTDFTLTISSLQPEDFATYFCQQAHSLPITFGQGTRLGIK
binding result [1]: no binding (tested: FOI >=10 = positive) | Human primary T Cell Binding (FOI) [2]: 171 FOI | Jurkat Cell Binding (FOI) [2]: 155 FOI

B10: mAb 132 (antibody, V domains shown)
VH: DVQLVESGGGTVKTGGSLRLSCVASGFSFKKAWMNWVRQAPGKGLEWVGRIKKNSDGGTADYAAPVKGRFTISRDDSKKTLYLQMNSLQTEDTAVYYCTTLDSSSWYVGYYYMDVWGKGTTVTVSS
VL: DIQMTQSPSSVSASVGDRVIITCRASQDINNWLAWYQQKPGIAPKLLIYTASSLQSGVPSRFSGSGSVSDFTLTIGSLQPEDFATYYCQQAHSLPITFGQGTRLEIK
binding result [1]: no binding (tested: FOI >=10 = positive) | Human primary T Cell Binding (FOI) [2]: 164 FOI | Jurkat Cell Binding (FOI) [2]: 157 FOI

B11: mAb 156 (antibody, V domains shown)
VH: EVQLVESGGGLVKTGGSLRLSCVASGFSFKKAWMNWVRQAPGKGLEWVGRIKRNTDGGTADYAAPVKGRFTLSRDDSKKTLFLQMNSLKTEDTAVYYCTTLDSSSYYVGYYYMDVWGKGTTVTVSS
VL: DIQMTQSPSSVSASVGDRVIITCRASQDINNWLAWYQQKAGKAPKLLIYTASSLQSGVPSRFSGSGSGTDFTLTIGSLQPEDFATYYCQQAHSLPITFGQGTRLEIK
binding result [1]: no binding (tested: FOI >=10 = positive) | Human primary T Cell Binding (FOI) [2]: 243 FOI | Jurkat Cell Binding (FOI) [2]: 171 FOI

B12: mAb 115 (antibody, V domains shown)
VH: EVQLVESGGGLVKTGGSHRLSCVASGFSFKKAWMNWVRQAPGKGLEWVGRIKRNSDGGTTDYAAPVKGRFILSRDDSKNTLYLQMNSLKTEDTAVYYCTTLDSSSWYVGYYYMDVWGKGTTVTVSS
VL: DIQMTQSPSSVSASVGDRVTITCRASQDINNWLAWYQQKPGKAPKILIYTASNLQSGVPSRFSGSGSGTDFTLTISSLQPEDFATYFCQQAHGLPITFGQGTRLEIK
binding result [1]: no binding (tested: FOI >=10 = positive) | Human primary T Cell Binding (FOI) [2]: 174 FOI | Jurkat Cell Binding (FOI) [2]: 157 FOI

B13: mAb 122 (antibody, V domains shown)
VH: EVQLVESGGGLVKTGGSLRLSCVASGFSFKKAWMNWVRQAPGKGLEWVGRIKRNTDGGTADYAAPVKGRFTLSRDDSKKTLYLQMNSLKTEDTAVYYCTTLDSSSRYVGYYYMDVWGKGTTVTVSS
VL: DIQMTQSPSSVSASVGDRVIITCRASQDINNWLAWYQQKPGKVPKLLIYTASSLQSGVPSRFSGSGSGTDFTLTIGSLQPEDFATYYCQQAHSLPITFGQGTRLEIK
binding result [1]: no binding (tested: FOI >=10 = positive) | Human primary T Cell Binding (FOI) [2]: 174 FOI | Jurkat Cell Binding (FOI) [2]: 199 FOI

B14: mAb 157 (antibody, V domains shown)
VH: EVQLVESGGGLVKTGGSLRLSCVASGFSFKKAWMNWVRQAPGKGLEWVGRIKRTADGGATDYAAPVKGRFTLSRDDSKNTLYLQMNSLKTEDTAVYYCTTLDSSSWYVGYYYMDVWGKGTTVTVSS
VL: DIHMTQAPSSVSASVGDRVTFTCRASQDINNWLAWYQQKPGKAPKLLIYTASSLQSGVPSRFSGSGSGTDFTLTISSLQPEDFATYYCQQAHSLPITFGQGTRLGIK
binding result [1]: no binding (tested: FOI >=10 = positive) | Human primary T Cell Binding (FOI) [2]: 265 FOI | Jurkat Cell Binding (FOI) [2]: 163 FOI

B15: mAb 125 (antibody, V domains shown)
VH: EVQLVESGGGLVKTGGSLRLSCVASGFSFKKAWMNWVRQAPGKGLEWVGRIKRNTDGGTADYAAPVKGRFTLSRDDSKKTLYLQMNSLKTEDTAVYYCTTLDSSSRYVGYYYMDVWGKGTTVTVSS
VL: DIQMTQSPSSVSASVGDRVIITCRASQDINNWLAWYQQKPGKVPKLLIYTASSLQSGVPSRFSGSGSGTDFTLTIGTLQPEDFATYYCQQAHSLPITFGQGTRLDIK
binding result [1]: no binding (tested: FOI >=10 = positive) | Human primary T Cell Binding (FOI) [2]: 180 FOI | Jurkat Cell Binding (FOI) [2]: 185 FOI

B16: mAb 117 (antibody, V domains shown)
VH: EVQLVESGGGLVKTGGSLRLSCVASGFSFKKAWMNWVRQAPGKGLEWVGRIKRNTDGGTTDYAAPVKGRFTLSRDDSKNTLYLQMNSLKTEDTAVYYCTTLDSSSLYVGYYYMDVWGKGTTVTVSS
VL: DIQMTQSPSSVSASVGDRVTITCRASQDINNWLAWYQQKPGKAPKLLIYTASSLQSGVPSRFSGSGSGTDFTLTISSLQPEDFATYYCQQAHSLPITFGQGTRLEIK
binding result [1]: no binding (tested: FOI >=10 = positive) | Human primary T Cell Binding (FOI) [2]: 170 FOI | Jurkat Cell Binding (FOI) [2]: 155 FOI
